Results published in patent US20250082727A1, “CXCL14-BASED COMPOSITIONS AND METHOD FOR ENHANCING CARTILAGE REGENERATION” (FAR EASTERN MEMORIAL HOSPITAL, priority 2023, published 2025).

B1: CXCL14: small cytokine of the CXC chemokine family, Homo sapiens CXCL14, amino acid sequence SEQ ID NO: 1 (protein, listed as Homo sapiens)
chain: MSLLPRRAPPVSMRLLAAALLLLLLALYTARVDGSKCKCSRKGPKIRYSDVKKLEMKPKYPHCEEKMVIITTKSVSRYRGQEHCLHPKLQSTKRFIKWYNAWNEKRRVYEE

Key:
3D ADSC spheroids = assay: Immunofluorescence staining of chondrogenic proteins in 3D ADSC spheroids; format: cell-based; conditions: 3D culture
Experimental: MSC spheroids were fixed with 4% paraformaldehyde (PFA) (PH 7.2) in PBS for 30 minutes at room temperature. The samples were then washed with PBS to remove the PFA. Next, the spheroids were carefully transferred into ice-cold methanol and incubated at −40° C. for 25 minutes. Following fixation, the spheroids were treated with 1 mg/mL sodium borohydride to clean them, and then washed with PBS. After washing, the spheroids were incubated in a blocking solution containing 10% normal rabbit serum and 1x PBS with 0.1% sodium azide for 6 hours or overnight. The samples were then incubated with primary antibodies against Collagen type II (ab34712, Abcam), SOX9 (ab185966, Abcam), COMP (sc-374660, Santa Cruz), and Aggrecan (MA3-16888, Invitrogen) for 24 hours at 4° C. Subsequently, the samples were incubated with Alexa Fluor 488-, Alexa Fluor 555-, or Alexa Fluor 647-conjugated secondary antibodies for 1 hour at room temperature. Fluorescence images were acquired using a Leica SP8 STED confocal microscope.

ADSC = assay: Real-time PCR of chondrogenic genes in treated ADSCs; format: cell-based, human
Experimental: (§1) To obtain a 3D pellet culture, 1×10^5 MSCs were centrifuged at 1200 rpm for 3 min in polypropylene tubes and cultured for 1 day. To induce chondrogenesis, the pelleted cells were cultured in DMEM-HG (Gibco, cat. no. 121000) containing 1% ITS-Premix (Corning, cat. no. 354352), 1% penicillin streptomycin (Gibco, cat. no. 15240), 1 mM sodium pyruvate (Gibco, cat. no. 11360070), 0.35 mM proline (Sigma-Aldrich, cat. no. P5607), 10 ng/mL TGF-β1 (SinoBio, cat. no. 10804-HNAC), 0.17 mM ascorbic acid 2-phosphate (Sigma-Aldrich, cat. no. A8960), and 100 nM dexamethasone (Sigma-Aldrich, cat. no. D4902). After induction, the chondrogenic differentiation results were evaluated on days 1, 7, 14, and 21.
To identify functional peptide sequences within the CXCL14 protein that enhance chondrogenesis, an CXCL14 peptide (CXCL14-P), which has the amino acid sequence set forth in SEQ ID NO: 2, was used for interacting with CXCR4. […]
MSC-EVs have been reported to have potential for tissue repair; however, naive EVs lack the enhanced capacity to stimulate chondrogenesis and cartilage repair. […] On day 7, ADSCs treated with CXCL14-P-MSC-EVs were analyzed for the expression of SOX9, COL2A1, ACAN, COMP, SOSTDC1, and ITGB1 genes […] using real-time PCR.

human ADSCs = assay: Flow cytometry of chondrogenic markers in ADSCs; format: cell-based; conditions: third day of differentiation
Experimental: (§2) To further verify the presence of chondrogenic proteins in response to CXCL14-P treatment, ADSCs were analyzed during chondrogenesis using biomarkers such as SOX9, Collagen type II, COMP, and CXCR4. On the third day of differentiation, flow cytometry was used to assess these specific chondrogenic markers. […] ADSCs were monitored until day 7, with cellular uptake of FAM-CXCL14-P observed using fluorescence microscopy, the results were shown in FIG. 7E.

ADSC pellets = assay: Alcian blue staining of ADSC pellets; format: cell-based
Experimental: as §1, §2

[1] = test system: IPFP-MSC from OA patients; assay: Alcian blue staining of GAG during chondrogenesis of IPFP-MSC pellets; format: cell-based, human; conditions: day 3
Experimental: The IPFP tissue was washed repeatedly with Dulbecco's phosphate-buffered saline (Gibco, cat. no. 21600) containing 5% penicillin-streptomycin and amphotericin B solution (Gibco, cat. no. 15240). The tissue was minced and subjected to enzymatic digestion with 0.1% type I collagenase (Gibco, cat. no. 17100017) diluted in minimum essential medium α (α-MEM, Gibco, cat. no. 120000) and 1% bovine serum albumin (Sigma, cat. no. A7906) for 18 h at 37° C. After digestion, an equal amount of culture medium containing 10% fetal bovine serum was added to stop collagenase activity. The cell solution was sieved through a 100-μm mesh and centrifuged at 500 g for 5 min. The cell pellets were resuspended in culture medium (supplemented with 10% FBS, 1% penicillin-streptomycin, and amphotericin B) and seeded in a 10-cm culture dish. The medium was changed every 72 h until the cells reached 80%-90% confluence.
To obtain a 3D pellet culture, 1×10^5 MSCs were centrifuged at 1200 rpm for 3 min in polypropylene tubes and cultured for 1 day. […]
CXCL14 was analyzed to determine the stimulation of chondrogenesis and cartilage regeneration. CXCL14 was also analyzed to determine whether CXCL14 can induce chondrogenesis by using IPFP-MSC from OA patients treated with the recombinant protein CXCL14 and investigating the glycosaminoglycan (GAG) content by Alcian blue staining. […]

ACLT-induced OA = assay: ACLT-induced knee OA mouse model (Safranin O, collagen II IHC, OARSI score); format: in vivo, C57BL/6 mice; conditions: for OARSI score: ACLT mice, ACLT group 5.5, sham 0.17
Excerpt: Surgical ACLT is the most commonly used for generating an animal model of OA. In this study, 8-week-old specific-pathogen-free C57BL/6 mice were subjected to ACLT and medial collateral ligament (MCL) transection for establishing an OA mouse model (n=6). First, the knee joints of the hind limbs were incised along the medial edge of the patellar ligament. After the joint capsule was exposed, the ACL and MCL were transected. […] After deparaffinization, the sections were stained with hematoxylin for 3 min and differentiated in 1% acid alcohol for 15 s, followed by staining in 0.02% aqueous fast green for 3 min and counterstaining with 0.1% Safranin O for 3 min. Finally, the sections were dehydrated in serial dilutions of ethanol, cleared in xylene, mounted onto glass slides by using neutral gum. Each stained area was observed under a light microscope and photographed using a photomicroscope equipped with a CCD video camera.

[2] = test system: CXCL14, SOX9, COL2A1, and ACAN mRNA expressions; assay: Real-time PCR of chondrogenic genes under TGF-b stimulation during chondrogenesis; format: cell-based; conditions: under a low dose of TGF-β stimulation
Experimental: as §1
To better understand the molecular mechanism relating to the control of chondrogenesis modulated by CXCL14, the chondrogenic gene expressions were investigated during chondrogenesis.

SOSTDC1 = assay: qPCR validation of SOSTDC1 after CXCL14 treatment during MSC chondrogenesis; format: cell-based, human

Molecule	expressions of SOX9, Collagen type II, and Aggrecan (immunofluorescence) (3D ADSC spheroids)	CXCL14, SOX9, and COL2A1 gene expression (ADSC; ADSC, real-time PCR on day 7, compared to CXCL14 protein)	SOX9, COL2A1, COMP, and ACAN gene expression (ADSC; one-day treatment then fresh medium, real-time PCR on day 7)	chondrogenic potential (SOX9, Collagen type II, COMP, CXCR4 markers) (human ADSCs)	GAG content (Alcian blue staining) (ADSC pellets; ADSC pellets during chondrogenesis)	GAG deposition (Alcian blue staining) (ADSC pellets; ADSC pellets with varying ratios, day 7)	GAG deposition (Alcian blue staining) [1]	OARSI score (ACLT-induced OA; CXCL14 10 ng)	OARSI score (ACLT-induced OA; CXCL14 20 ng)	cartilage repair, staining GAG content and type II collagen (ACLT-induced OA; ACLT-induced OA model)	CXCL14, SOX9, COL2A1, and ACAN gene expression [2]	SOSTDC1 expression (qPCR) (SOSTDC1; IPFP-MSCs from OA donors)	SOSTDC1 expression (qPCR) (SOSTDC1; human ADSCs from non-OA donors)
CXCL14-P: CXCL14 peptide with the amino acid sequence SEQ ID NO: 2, produced through solid-phase peptide synthesis (ITTKSVSRYRGQEH; listed as Homo sapiens)	consistent results	stronger chondrogenic gene expression compared to the protein	significantly induced	enhances the chondrogenic potential	higher GAG content	increased GAG deposition							
B1	elevate						increased	2.7	1	dose-dependent stimulated cartilage repair	induce	upregulated expression	upregulated expression
